# Assay results published in patent US11492376B2, “Toxoplasma gondii GRA8-derived recombinant peptides and composition for preventing or treating cancer comprising the same” (Industry—University Cooperation Foundation Hanyang …, priority 2019, dated 2022).
# Experiments:
# [1] = Pharmacokinetics and drug distribution in HCT116 tumor-bearing mice (His immunoblotting of organs); type: in vivo, BALB/c mouse
# Description: The […] were administered into the mouse by intraperitoneal injection once (left) or twice (right), and then the mouse was sacrificed on day 5. His expression was evaluated by immunoblotting (IB) in various organs from a mouse. The whole cell lysate was used for IB with anti-actin. Data represents four independent experiments with similar results. (B) The schematic diagram of an rGRA8 WT (upper)-treated xenograft model. […] The length and width of the tumors were measured using calipers, and a tumor volume was calculated every third day for 30 days. Individual tumor volumes from each mouse in each group were averaged and graphed over days after inoculation. Statistical significance was determined by two-way analysis of variance (ANOVA) with a Tukey's post-test; * P<0.05, *** P<0.001, compared with rVector. Each group included 10 mice. Data represents two independent experiments with similar results.
# complex V OXPHOS = target: T1, complex V OXPHOS (Homo sapiens, UniProt P25705); assay: Mitochondria complex V OXPHOS activity assay in HCT116 cells; type: cell-based
# T1 construct: rATRAM-GRA8-M/AS enhanced complex V OXPHOS activity, mitochondrial mass and mitochondrial DNA content via SIRT3 and PKCα in HCT116 cells; endogenous in cells; host or cells: HCT116 cells
# Description: FIGS. 4A, 4B, 4C, 4D and 4E show HCT116 cell death by rATRAM-GRA8-M/AS-induced mitochondrial activation [(A and B) HCT116 cells were incubated with WT rGRA8 or rATRAM-GRA8-M/AS and its mutants for indicated times, and then cell viability was measured with an MTT assay. […] The cells were stimulated with rATRAM-GRA8-M/AS for 1 day and subjected to enzymatic activity of OXPHOS V, and (C) MitoTracker fluorescence signals were assessed by flow cytometry. (D) A bar graph indicates a mitochondrial mass (MFI), and (E) the mtDNA content of BMDM was measured by quantitative real-time PCR. The mtDNA content was normalized by nuclear DNA. Significant differences were determined by comparison with control treatment (** P<0.01; *** P<0.001). Data represents five independent experiments with similar results].
# The activity of complex V was measured using a MitoTox Complex V OXPHOS Activity Microplate Assay kit manufactured by Abcam (ab109907, MA, Cambridge) according to the manufacturer's instructions. The activity of complex V was measured by monitoring the change in absorbance at 340 nm for 1 hour at 30° C. Oligomycin (Sigma, 04876) was used as a positive control for the assay.
# [2] = Immunogenicity: specific IgG by ELISA in immunized mice; conditions: immunized BALB/C mice, OD 450 nm
# Description: Immunoblotting was performed with anti-PKCα, anti-ATP5A1, anti-SIRT3 or anti-actin. […] (B) The schematic diagram of a xenograft model treated with rVector (upper). HCT116-expressing ATP5A1 WT and mutant cells were subcutaneously injected into the flank of nude mice. […] Each group included 10 mice. […] (C) Humoral immune responses in BALB/C mice. The mice were immunized via each route (intravenous injection or intraperitoneal injection) every third day, and subjected to blood collection on day 40. […] The values are expressed as mean±standard deviation for absorbance (OD) at 450 nm. Each group included five mice. (D) Cytokine response for rATRAM-GRA8-M/AS in tumor-bearing mice. As described in the method section, HCT116 cells were subcutaneously injected into the flank of a BALB/c mouse. A serum cytokine level was measured on day 30 after administration. Each group included 10 mice.
# Since immunogenicity is closely related with safety and efficacy, it is one of the critical factors for development of therapeutic proteins. Therefore, by monitoring the production of antibodies against rATRAM-GRA8-M/AS in immunized mice, the immunogenicity of rATRAM-GRA8-M/AS was investigated. After three consecutive injections of rATRAM-GRA8-M/AS, a level of IgG antibody was analyzed using enzyme-linked immunosorbent assay (ELISA).
# [3] = tumor-bearing mice, intraperitoneal injection
molecule,measurement,setting,value
"(GLAGLAGLLGLEGLLGLPLGLLEGLWLGLELEGN)2-GG-ATATTTTTTR-GG-YRFTVQTTQN (protein, His tag; rATRAM-G8-M/AS) GLAGLAGLLGLEGLLGLPLGLLEGLWLGLELEGNGLAGLAGLLGLEGLLGLPLGLLEGLWLGLELEGNGGATATTTTTTRGGYRFTVQTTQN",cancer cell targetability,"[1]; immunoblotting, FIG. 5",excellent cancer cell targetability
same,disappearance from tumor,[1]; [3],gradually disappeared by day 3
same,time the tumor location was maintained,[1]; [3],up to 2 days
same,location of protein among organs,"[1]; tumor-bearing mice, intraperitoneal injection, His immunoblotting",located in tumor cells
same,complex V OXPHOS activity,"complex V OXPHOS; HCT116 cells, 1 day, via SIRT3 and PKCα",enhanced
same,"mitochondrial activity (Oxphos V activity, mitochondrial mass and ATP production) in cancer cells","complex V OXPHOS; summary statement, FIG. 4",induced
same,level of specific IgG antibody,[2],negligible
